Test results taken from the nanobody polyreactivity screen of Harvey et al. (2022).

Assay: yeast display, Sf9 membrane polyspecificity reagent, FACS + sequencing; frameworks hold sequencing errors
Outline: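 Galactose-induced (36–48 hours) yeast carrying a synthetic nanobody display library were exposed to 10% biotinylated, detergent-solubilized Sf9 membrane reagent at 4 °C for 1 hour. FACS followed streptavidin microbead enrichment, using low and high (top ~1%) gates for expression (anti-HA) and reagent binding (streptavidin). Colony PCR, MiSeq 2 × 250 sequencing and CDR-length filtering followed. Labels for polyreactivity reflect the gate of origin.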

QVQLQESGGGQVQAGGSLRLSCAASGNNSVTGFMGRYRQAPGKERELVASIGIGGTTYYADSVKGRFSISRDNAKNTVYLQMNSLKPEDTAVYYCAARYLYYAYSYWGQGTQVTVSS
polyreactivity (PSR sort gate): low polyreactivity

QVQLVESGGGLVQAGGSLRLSCAASGFIYHGYTMGWYSQAPGKERDLVAAITTSGTSTYYADSVKGRFTISRDNAKNTVYLQMNSLKPEDTAVYYCYDYVPGGYSRPYYYRFDHWGQGTQVTVSS
polyreactivity (PSR sort gate): high polyreactivity

QVQIVESGGGLVQAGGSLRLSCAASGFIFGPYAMGWYRQAPGKERELVAAMSRSGGDTYYADSVKGRFTISRDFEKNTVYLQMNSLKPEDTAVYYCAAVGKYSAYNYWGQGTQVTVSS
polyreactivity (PSR sort gate): high polyreactivity

QVQLVESGGGLVQAGGSLRLSCAASGFTFFSNAMGWYRQAPGKERELVAAITSSGGSTYADSVKGRFTISRDNAKNTVYLQMNSLKPEDTAVYYCAADALAPPGGFKEYDYWGQGTQVTVSS
polyreactivity (PSR sort gate): low polyreactivity

QVQLVESGGGLVQAGGRLRLSCAASGFTFLDYAMGWYRQAPGKERELVASISSSGGSTRFADSVKGRFTISRDNAKNTVYLQMNSLKPEDTAVYYCNADVDLFGAAYGYDYWGQGTQVTVSS
polyreactivity (PSR sort gate): low polyreactivity

QVQLVESGGGLVQAGGSLRLSCAASGSIFSLNAMGWYRQAPGKERELVAAISGRGGSTYYADSVKGRFTISRDNAKNTVYLQMNSLKPEDTAVYYCAARFSRTFLGYYYWGQGTQVTVSS
polyreactivity (PSR sort gate): high polyreactivity

QVQLVESGGGLVQAGGSLRLSCAASGRIFKWYAMGWYRQAPGKERELVAAISRSGGTTYYADSVKGRFTISSDNAKNTDYLQMNSLKPEDTAVYYCATRNIYFSTVDYWGQGTQVTVSS
polyreactivity (PSR sort gate): high polyreactivity

QVQLVESGGGLVQAGGSLRLSCAASGSIFVWYAMGWYRQEPGKERELVATISSRGGTTYYADSVKGRFTISRDNAKNTVYLQMNSLKPEDTAVYYCNAKRRAQYGYRVFRYDYWGQGTQVTVSS
polyreactivity (PSR sort gate): high polyreactivity

QVQLVESGGGLVQAGGSLRLSCAASGSTFWFYAMGWYRQAPGKERELVAAISSSGTNTYYADSVKGRFTISRDNAKNTVYLQMNSLKPEDTAVCYCAAQYRGSYRTTYDYWGQCTQVTVSS
polyreactivity (PSR sort gate): low polyreactivity

QVQLVESGGGLVQAGGSLRLSCAASGGIFTGYAMGRYRQAPGKERELVAAISSGGTTYYADSVKGRFTISRDNAKNTVDLQMNSLKPEDTAVYYCAAGFYLRAVWMDYWGQGSQVTVSS
polyreactivity (PSR sort gate): high polyreactivity

QDQLVETGGGLVQAGGSLRISCADSGFTFGVNAMGWYREAPGKERELVAVITSGGNTYYADSVKGRFTISRDNAKNTDYCQMNSLKPEDTAVYYCAAYGRDSWDRDYWGQGTQVTVSS
polyreactivity (PSR sort gate): low polyreactivity

QVQLVESGGGLVQAGGSLRLSCAASGSTFFRYAMGWNRQAPGKERELVATITGGGRTNYADSVKGRFTISRDNAKNTVYLQMNTLKPEDTAVYYCAAYGYVWALRLRYVTYYYWGQGTQVTVSS
polyreactivity (PSR sort gate): high polyreactivity

QVQLVESGGGLVQAGGSLRLICAASGRTFYSKTMGWSRQAPGKEREFVAAIPSIVGSTYYADSVKGRFTISRDNAKITVYFKMNSLKPEDTAVYYCAVTDYYSYQLRYDSSGQGTQVTVSS
polyreactivity (PSR sort gate): low polyreactivity

QVQLVESGGGLVQAGGSLRLSCAASGFIFRYNAMGWYRQAPGKERELVARITSSGGTTYYADSVKGRFTISRDNAKNTVYLQMNSLKPEDTAVYYCAITWRKYYPPYYYWGQGTQVTVSS
polyreactivity (PSR sort gate): high polyreactivity

QVQLVESGGGLVQAGGSLRLSCAASGRISARYVMGWYRQAPGKERELVAAISWSGDRTYYADSVKGRFTISRDNAKNTVYLQMNSLKPEDTAVYYCATGFYSRLAYGYGYWGQGSQVTVSS
polyreactivity (PSR sort gate): high polyreactivity

QVQLVESGGGLVQAGGSLRLSCAASGSTFDGNAMGWYRQAPGTERELVATINSDDSKNYADSVKGRFTISRDNAKNTVYLQMNSLKPEDTAVYYCAARLYVTPILSYVERYTNDYWGQGTQVTVSS
polyreactivity (PSR sort gate): low polyreactivity

QVQLVESGGGLVQAGGSLRLSCAASGSIFGRNDMGWYRQAPGKERELVARITRGGSTNYADSVKGRFTISRDNAKNTVYLQMNSLKPEDTAVYYCAAGARQYRGVPDRYGYWGQGTQVTVSS
polyreactivity (PSR sort gate): low polyreactivity

QVQLVESGGGLVQAGGSLRLSCAASGRTFYYYYTMGWYRQAPGKERELVAAISRSGSTNYADSVKGRFTISRDNAKNSVYLQMNSLKPEDTAVYYCAKETNRVGRYQWGQGTQVTVSS
polyreactivity (PSR sort gate): low polyreactivity

QVKLVESGRGLVQAGGSLRLSCAASGITFISNAMAVYRQAPGKERELVAAISYRGGSTYYADSVKGRFTISRDNAKNTVYLQMNSLKPEDTAVYDCAARFHYPGGPRYYYWGQGTQVTVSS
polyreactivity (PSR sort gate): high polyreactivity

QVQLVESGGGLVQAGGSLRLSCAASGRTFKSNAMGWYRQAPGKERELVATINYSATSTYYADSVKGSFTISRDNAKNTVYLQMNSLKPEDTAVYYCNVACGYSYRGLDYWGQVTQVTVSS
polyreactivity (PSR sort gate): high polyreactivity

QVQLVESGVGLDQAGGSLRLSCAASGGIIAINAMGWYSQAPGKERELVAAISWGDGMTYYADSVKGRFTISRDNAKNTVYLQMNSLKPDDSAVYYCAADADEYRGGDVSWGQGTQVTVSS
polyreactivity (PSR sort gate): low polyreactivity

QVQLEESGGGLVQAGGSLRLSCAASGYIFSQYAMGWYRPAPGKERELVASISGSGSSTYYADSVKGRFTISRDNAKNTVYLQMNSLKPADTAVFYCAAEWTWGWYITFDYWGQGTQVTVSS
polyreactivity (PSR sort gate): high polyreactivity

QVQLVESGGGLVQAGGSLRLSSAASGGIFSSYAMGWYRQAPGKERELVAAISGSGGRTYYADSVKGRFTISRDNAKNTVYLQMNSLKPEDTSVYYCAAYPVNRVDYRYDYWGQGTQVTVSS
polyreactivity (PSR sort gate): high polyreactivity

QVQLVESGGGLVQAGGRLRLSCAASGSILVFYARGWYRQAPGKERELVAAITSGASTNYADSVKGRFTISRDNAKNTVYLQMNSLKPEDTAVYYCAAGFQTRTPLNEFDYWGQGTQVTVSS
polyreactivity (PSR sort gate): low polyreactivity

QGQLVESGGGLVQAGGRLRLSCAASGSTFYGNAMGWYRQAPGKERELVAAITWGDASTYYADSVKGRFTISRDNAKNPVYLQMNSLKPEDTAVSYCAVDESYGSSSDMDYWGQGTQVTVSS
polyreactivity (PSR sort gate): low polyreactivity

QVQLVESGGGLVQAGGSLRLSCAASGRIFRYYAMGWYRQAPGKERELVAAITRGGSTNYADSVKGRFTISRDNAKNTVYLQMNSLIPEDTAVYYCNKYPYFVYGDYGYWGQGTQVTVSS
polyreactivity (PSR sort gate): high polyreactivity

QVQLQESGGCLVQADGSLRLSCAASGSIFGYYYMGWYRQAPGKDRELVATINICGITNYADSVKGRFTISRDNAKNTVYLQMNSLKPDDTAVYYCAADEYAQRDLGYWGQGTQVTVSS
polyreactivity (PSR sort gate): low polyreactivity

PVQLVESRGRLVQAGGSLRLSCAASGSIFGYNAMGWYRQAPGKERELVAAISYSGASTYYSDSVKGRFTISRDNAKNTVYLQLNSLKPEDTAVYYCAAGWKRFSGRNHYYWGLGTQVTVSS
polyreactivity (PSR sort gate): high polyreactivity

QVQLVESGGGLVQAGGSLRLSCAASGFTPGNVMGWYRQAPGKERELVAAISWSGDSTYYADSVKGRFTISRDNAKNTVYLQMNSLKPEDTAVYYCAADGVPGRAVDYEYWGQGTQVTVSS
polyreactivity (PSR sort gate): high polyreactivity

QVQLVESGGGLVQAGGSLRVSCAASGSTFQYNAMGWYRQAPGKERELVAVITRRGGRTYYADSVKGRFTISRDNAKNSVYLQLNSLKAEDTAVYYCAAYFDYTHRFYYWGQGTQVTVSS
polyreactivity (PSR sort gate): high polyreactivity

QVQLVESGGGLDQAGGSLRLSCAASGLIFYDKMGWYRQAPRKERELVAAISSSCGSTSYADSVKGRFTISRDNAKHTVYLQMNSLKPEDTAVYYCAADSYPAYLGFVGFDYWGQGTQVTVSS
polyreactivity (PSR sort gate): low polyreactivity

QVQLVESGGGLVQAGGSLRLSCAASGRTFGTYAIVWYRPAPGKERELVAAITRRGGSTYYADSVKGRFTISRDNAKNTVYLQMNSLKPEDTAVYYCAARWFRYVPYSFPYLYKYDYWGQGTQVTVSS
polyreactivity (PSR sort gate): low polyreactivity

QVQLVESGGGLVQAGGSLRLSCAASGFIIYRNPMGWYRQAPGKERELVAGISSGGSTNYADSVKGRFTISRDNEKNTVYLQMNSLKPEDTAVYYCASRVYALWFGRYDYWGQGTQVIVSS
polyreactivity (PSR sort gate): high polyreactivity

QVQLVESGGGLVQAGGSLRLSCAASGSIFSAKTMGWYRQAPGKERELVAAISSSGGRTYYADSVKGRFTISRDHAKNTVYLQMNSLKPEDTAVYYSNARSRYHVTPYSGVTGYDYWGQGTQVTVSS
polyreactivity (PSR sort gate): high polyreactivity

QVQLVESGGGLVQAGGSLRLSCAASGYIFGSYVMGWYRQAPGKERELVAAITRIGASTYYEDSVKGRFTISRDTAKNTVYIQMNSLKPDDTAVYDCATDQGGYYENDYWGQGTQVTVSS
polyreactivity (PSR sort gate): low polyreactivity

QLHLVESGGGLVQAGGSLRLSCAASGITFAGYALGWYRQAPGKERELVASITWGGGRTYYADSVKGRFTSSRDNAKNTVYLQMNSLKPEATAVYYCATRRRPQYNKYDYWGQGTQLTVSS
polyreactivity (PSR sort gate): high polyreactivity

QVQLVESGGGLVQAGGSLRISCDASGSTFVANAMRSYREAPGKERELLAAISRSGGRTYYADSVKGRFTISRDNAKYTVYFQMNSLKPEDTAVYYCAADGYRSPVYANWGMGYWGQGSQVTVSS
polyreactivity (PSR sort gate): high polyreactivity

QVQLVESGGGLVQAGGSLRLSCAASGSTFVWNAMGWYRQAPGKERELVAAITSSGGSTYYADSVKGRFTISRDNAKNTVYLQMNSLKPEDTAVYYCAATGVNYRGLLGVAWGNNYWGQGTQVTVSS
polyreactivity (PSR sort gate): low polyreactivity

QVQLVESGGGLVQAGGSLRLSCAASGFTFVGNAMGWYRQAPGKERELVATITSGGNTKYADSVKGRFTISRDNAKNTVYLQMNSLKPEDTAVYYCAAAKYNYRRFNYWGQGTQVTVSS
polyreactivity (PSR sort gate): low polyreactivity

QVQLVESGGGLVQAGGSLRLSCAASGITFGIYVMGWYRQAPGKERELVATISRSDDNTYYADSVKGRFTISRDNAKNTVYLQMNSLKPEDTAVYYCAADGVISAWYSSRDDYWGQGTQVTVSS
polyreactivity (PSR sort gate): low polyreactivity

QVQLVESGGGLVQAGGSLRLSCAASGYIFYVYAMGWYRQAPGKERELVAAINSGDITYYADSVKGRFTISRDNAKNTVYLQMNSLKPEDTAVYYCATVLILIYDYWGQGTQVTVSS
polyreactivity (PSR sort gate): low polyreactivity

QVQLVESGGGIVQAGGSLRLSCAASGITFEYNAIGWYRQAPGKARELVAAISQSSGSTYYADSVKGRFTISRDYAKNTVYLQMNSLKPEDTAVYYCNADTIIYEGGYWGQGTQVTVSS
polyreactivity (PSR sort gate): low polyreactivity

QVQLVESGGGLVQAGGSLRLSCAASGSTFHVYAMGWYRQAPGKEREFVASITTRGGSTYYADSVKGRFTISRDNAKNTVYLQMNSLKPEDTAVYYCNATPYPGGNGRWRFWKSYGYWGQGTQVTVSS
polyreactivity (PSR sort gate): high polyreactivity
